According to article PMC5687031:

Target: full-length Spc29^2-253 (S. cerevisiae) (UniProt P33419)
Experiment: SAXS

Sequence of full-length Spc29^2-253 (P33419 2-253): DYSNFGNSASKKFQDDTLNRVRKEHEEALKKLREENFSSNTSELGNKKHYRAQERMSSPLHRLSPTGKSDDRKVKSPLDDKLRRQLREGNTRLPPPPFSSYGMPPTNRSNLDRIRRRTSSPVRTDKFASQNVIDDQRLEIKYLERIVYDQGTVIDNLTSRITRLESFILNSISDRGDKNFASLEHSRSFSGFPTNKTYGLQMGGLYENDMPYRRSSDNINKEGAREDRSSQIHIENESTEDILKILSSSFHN

stoichiometry N: 3 chains
Substance: full-length Spc29^2-253 (from UniProt P33419 2-253) (natural protein)
